To fix the notation:
B1: full-length mouse BTLA-EGFP, on cells [mouse] / full-length WT mouse HVEM-mCherry, on cells [mouse] (parent complex)
chain 1: EKATKRNDEECPVQLTITRNSKQSARTGELFKIQCPVKYCVHRPNVTWCKHNGTICVPLEVSPQLYTSWEENQSVPVFVLHFKPIHLSDNGSYSCSTNFNSQVINSHSVTIHVRERTQNSSEHPLITVSDIPDATNASGPSTMEERPGRTWLLYTLLPLGALLLLLACVCLLCFLKRIQGKEKKPSDLAGRDTNLVDIPASSRTNHQALPSGTGIYDNDPWSSMQDESELTISLQSERNNQGIVYASLNHCVIGRNPRQENNMQEAPTEYASICVRS
chain 2: QPSCRQEEFLVGDECCPMCNPGYHVKQVCSEHTGTVCAPCPPQTYTAHANGLSKCLPCGVCDPDMGLLTWQECSSWKDTVCRCIPGYFCENQDGSHCSTCLQHTTCPPGQRVEKRGTHDQDTVCADCLTGTFSLGGTQEECLPWTNCSAFQQEVRRGTNSTDTTCSSQVVYYVVSILLPLVIVGAGIAGFLICTRRHLHTSSVAKELEPFQEQQENTIRFPVTEVGFAETEEETASN

Variants of B1 are the subject of this assay. In words: flow cytometry, cell–cell method. In general terms: Flow cytometry measures light scatter and fluorescence of single cells or particles in a stream.
For the variant chain 2 QPSCRQEEFLVGDECCPMCNPGYHVKQVCSEHTGTVCAPCPPQTYTAHANGLSKCLPCGVCDPDMGLLTWQECSSWDDTVCRCIPGYFCENQDGSHCSTCLQHTTCPPGQRVEKRGTHDQDTVCADCLTGTFSLGGTQEECLPWTNCSAFQQEVRRGTNSTDTTCSSQVVYYVVSILLPLVIVGAGIAGFLICTRRHLHTSSVAKELEPFQEQQENTIRFPVTEVGFAETEEETASN [chain 2 K77D], the ratio to parent worked out at 1.2. Turning to chain 2 QPSCRQEAFLVGDECCPMCNPGYHVKQVCSEHTGTVCAPCPPQTYTAHANGLSKCLPCGVCDPDMGLLTWQECSSWKDTVCRCIPGYFCENQDGSHCSTCLQHTTCPPGQRVEKRGTHDQDTVCADCLTGTFSLGGTQEECLPWTNCSAFQQEVRRGTNSTDTTCSSQVVYYVVSILLPLVIVGAGIAGFLICTRRHLHTSSVAKELEPFQEQQENTIRFPVTEVGFAETEEETASN [chain 2 E8A], the ratio to parent amounted to 1. Then chain 2 QPSCRQEEFLVGDECCPMCNPGYHVKQVCSEHTGDVCAPCPPQTYTAHANGLSKCLPCGVCDPDMGLLTWQECSSWKDTVCRCIPGYFCENQDGSHCSTCLQHTTCPPGQRVEKRGTHDQDTVCADCLTGTFSLGGTQEECLPWTNCSAFQQEVRRGTNSTDTTCSSQVVYYVVSILLPLVIVGAGIAGFLICTRRHLHTSSVAKELEPFQEQQENTIRFPVTEVGFAETEEETASN [chain 2 T35D], with 0.1; and chain 2 QPSCRQEEFLVGDECCPMCNPGYHVKQVCAEHTGTVCAPCPPQTYTAHANGLSKCLPCGVCDPDMGLLTWQECSSWKDTVCRCIPGYFCENQDGSHCSTCLQHTTCPPGQRVEKRGTHDQDTVCADCLTGTFSLGGTQEECLPWTNCSAFQQEVRRGTNSTDTTCSSQVVYYVVSILLPLVIVGAGIAGFLICTRRHLHTSSVAKELEPFQEQQENTIRFPVTEVGFAETEEETASN [chain 2 S30A], with 1; and chain 2 QPSCRQEEFLVGDECCPMCNPGYHVKQVCSEHTATVCAPCPPQTYTAHANGLSKCLPCGVCDPDMGLLTWQECSSWKDTVCRCIPGYFCENQDGSHCSTCLQHTTCPPGQRVEKRGTHDQDTVCADCLTGTFSLGGTQEECLPWTNCSAFQQEVRRGTNSTDTTCSSQVVYYVVSILLPLVIVGAGIAGFLICTRRHLHTSSVAKELEPFQEQQENTIRFPVTEVGFAETEEETASN [chain 2 G34A], with 1. Then chain 2 QPSCRQEEFLVGDECCPACNPGYHVKQVCSEHTGTVCAPCPPQTYTAHANGLSKCLPCGVCDPDMGLLTWQECSSWKDTVCRCIPGYFCENQDGSHCSTCLQHTTCPPGQRVEKRGTHDQDTVCADCLTGTFSLGGTQEECLPWTNCSAFQQEVRRGTNSTDTTCSSQVVYYVVSILLPLVIVGAGIAGFLICTRRHLHTSSVAKELEPFQEQQENTIRFPVTEVGFAETEEETASN [chain 2 M18A], with 1.2; and chain 2 QPSCRQEEFLVGDECCPMCNPGYHVKQVCSEHTGTVCAPCPPQTYTAHANGLSKCLPCGVCDPDMGLLTWQECSSWKDTVCRCIPGYFCENQDGSHCSACLQHTTCPPGQRVEKRGTHDQDTVCADCLTGTFSLGGTQEECLPWTNCSAFQQEVRRGTNSTDTTCSSQVVYYVVSILLPLVIVGAGIAGFLICTRRHLHTSSVAKELEPFQEQQENTIRFPVTEVGFAETEEETASN [chain 2 T99A], with 1; and chain 2 QPSCRQEEFLVGDECCPMCNPGYHVKQVCSEHTGTVCAPCPPQTYTAHANGLSKCLPCGVCDPDMGLLTWQECSSWKDTVCRCIPGYFCENQDGSHCSDCLQHTTCPPGQRVEKRGTHDQDTVCADCLTGTFSLGGTQEECLPWTNCSAFQQEVRRGTNSTDTTCSSQVVYYVVSILLPLVIVGAGIAGFLICTRRHLHTSSVAKELEPFQEQQENTIRFPVTEVGFAETEEETASN [chain 2 T99D], with 0.9. With chain 2 QPSCRQEEFLVGDECCPMCNPGYHVKQVCSEHTGTVCAPCPPQTYTAHANGLSKCLPCGVCDPDMGLLTWQECSSWKDTVCRCIPGYFCENQDGSHCDTCLQHTTCPPGQRVEKRGTHDQDTVCADCLTGTFSLGGTQEECLPWTNCSAFQQEVRRGTNSTDTTCSSQVVYYVVSILLPLVIVGAGIAGFLICTRRHLHTSSVAKELEPFQEQQENTIRFPVTEVGFAETEEETASN [chain 2 S98D] the figure was 1; with chain 2 QPSCRQEEFLVGDECCAMCNPGYHVKQVCSEHTGTVCAPCPPQTYTAHANGLSKCLPCGVCDPDMGLLTWQECSSWKDTVCRCIPGYFCENQDGSHCSTCLQHTTCPPGQRVEKRGTHDQDTVCADCLTGTFSLGGTQEECLPWTNCSAFQQEVRRGTNSTDTTCSSQVVYYVVSILLPLVIVGAGIAGFLICTRRHLHTSSVAKELEPFQEQQENTIRFPVTEVGFAETEEETASN [chain 2 P17A], 0.4; with chain 2 QPSCRQEEFLVGDECCPMCNPGYHVDQVCSEHTGTVCAPCPPQTYTAHANGLSKCLPCGVCDPDMGLLTWQECSSWKDTVCRCIPGYFCENQDGSHCSTCLQHTTCPPGQRVEKRGTHDQDTVCADCLTGTFSLGGTQEECLPWTNCSAFQQEVRRGTNSTDTTCSSQVVYYVVSILLPLVIVGAGIAGFLICTRRHLHTSSVAKELEPFQEQQENTIRFPVTEVGFAETEEETASN [chain 2 K26D], 1.

These data come from PMC8558838 (The Journal of Experimental Medicine, 2021).
